We go through five molecules from patent US20090203041A1, “BMP4 INHIBITORS” (priority 2006, published 2009).

“Also recorded” adds a separate entry of the source.

The target of experiment [1] is T1, BMP4 (Homo sapiens, UniProt P12644).
T1 sequence (P12644 293-408): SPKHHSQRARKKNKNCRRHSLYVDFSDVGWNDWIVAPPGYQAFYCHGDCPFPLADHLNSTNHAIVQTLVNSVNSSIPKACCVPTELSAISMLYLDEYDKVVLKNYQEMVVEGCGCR
Kind of experiment: BMP4-induced C2C12 cell differentiation assay, peptide preincubated with BMP4. The class given is cell-based. The note with it: peptide 5 μm preincubated with BMP4 100 ng/mL; C2C12 cells, ALP activity. How it is done:
(§1) To test whether exogenous expression of Gremlin can inhibit the activity of exogenously expressed BMP4, the activity of BMP4 secreted into the CM was measured by its effect on mouse myoblast C2C12 cell differentiation into osteoblasts. C2C12 cells were grown in 96-well plate until 90% confluence. Agents (100 ng/ml BMP4 or equivalent amounts of concentrated conditioned medium) were then added into the culture medium (Dulbecco's modified Eagle's medium with 5% fetal bovine serum) and the cells were cultured for 3 days. The cells were then lysed with 0.1% Triton X-100, and the alkaline phosphatase (ALP) activity in the cell lysate was quantified by adding substrate p-nitrophenyl phosphate and measuring absorbance at A405. Triplicate measurements were preformed for every sample. Conditioned media from cells transfected with control, Myc-BMP4, GRE-HA, or Myc-BMP4 and GRE-HA were assayed for BMP4 activity.
The function of the 30 amino acid Gremlin motif in mediating interaction between Gremlin and BMP4 and BMP4 inhibitor activity was assayed by the BMP4-induced C2C12 cell differentiation assay. A linear peptide corresponding to the mapped amino acid sequence (145-174) was synthesized by Genscript (Scotch Plains, N.J.).

In experiment [2] the target is Myc-tagged mouse BMP4 (Myc-BMP4) (mouse) (UniProt P21275). Kind of experiment: cell-based or functional assay.
In experiment [3] the target is T2, BMP4 (Mus musculus, UniProt P21275).
T2 construct: mature but no precursor BMP4 was detected in the concentrated CM; expressed in transfected cells; host or cells: COS-1 cells (conditioned medium applied to C2C12 cells)
T2 sequence (P21275 with tags, fused parts or gaps): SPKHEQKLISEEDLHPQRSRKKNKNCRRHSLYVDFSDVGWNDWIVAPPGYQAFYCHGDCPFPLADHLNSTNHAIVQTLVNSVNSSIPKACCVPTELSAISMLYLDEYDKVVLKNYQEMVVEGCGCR
The experiment can be described thus: BMP4-stimulated C2C12 cell differentiation assay (alkaline phosphatase activity) with conditioned medium of transfected COS-1 cells. The class given is cell-based. The note with it: C2C12 ALP activity. How it is done: (§2) To test whether exogenous BMP4 and Gremlin physically interact intracellularly, Myc-BMP4 and GRE-HA were co-transfected into COS-1 cells using Lipofectamine Plus (Invitrogen). Transfected cells were first cultured in medium containing 10% fetal calf serum for 20 hours and then cultured in serum-free conditioned medium (CM) for an additional 48 hours, and experiments were repeated at least three times.
as §1
CM collected separately from cells transfected with Myc-BMP4 or GRE-HA was mixed and preincubated for 1 hour before adding to C2C12 cells (1). COS-1 cells were transfected separately with Myc-BMP4 or GRE-HA, trypsinized and co-cultured during CM collection (2).

In experiment [4] the target is T3, Myc-BMP4 (Mus musculus, UniProt P21275, INS296EQKLISEEDL).
T3 construct: expressed in transfected cells; host or cells: COS-1 cells
T3 sequence (P21275 with tags, fused parts or gaps limits assumed): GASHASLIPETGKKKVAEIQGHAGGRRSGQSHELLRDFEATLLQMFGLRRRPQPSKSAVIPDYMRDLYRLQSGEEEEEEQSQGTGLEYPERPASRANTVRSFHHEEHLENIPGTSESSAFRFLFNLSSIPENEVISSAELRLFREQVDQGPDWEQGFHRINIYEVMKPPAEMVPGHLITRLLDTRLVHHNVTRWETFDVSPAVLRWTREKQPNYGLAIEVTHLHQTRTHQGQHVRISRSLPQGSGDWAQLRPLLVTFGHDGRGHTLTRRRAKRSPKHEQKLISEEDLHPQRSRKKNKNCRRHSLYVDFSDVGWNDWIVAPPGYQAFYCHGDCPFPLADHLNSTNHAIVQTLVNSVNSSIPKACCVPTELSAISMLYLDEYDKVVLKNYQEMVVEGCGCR
The experiment can be described thus: Co-immunoprecipitation of Myc-BMP4 with HA-tagged Gremlin proteins co-expressed in COS-1 cells (anti-HA IP, anti-Myc Western blot). The class given is binding. The note with it: co-transfected COS-1 cells. The procedure: as §2
To determine the specificity of BMP4-Gremlin binding and the molecular motif of Gremlin that is responsible for the intermolecular interaction, two truncated Gremlin molecules, GRE-DAN-HA and GRE-NF-HA, were generated with truncation of the NH2-terminal fragment (NF) or the carboxyl-terminal DAN domain (DAN), respectively, as diagramed in FIG. 6A (amino acid positions are in reference to SEQ ID NO:4). The two truncated Gremlin molecules were co-transfected with Myc-BMP4 into COS-1 cells, and immunoprecipitation was performed with anti-HA antibodies.
Partial cDNA of mouse Mucin-2, which encodes a Mucin-2 protein fragment of 114 amino acids on the carboxyl terminus (PQNQ . . . LGRK, GenBank™ accession number XP—620590) was generated by high fidelity RT-PCR (Pfu, Stratagene) and verified by DNA sequencing. An HA epitope was also added to the carboxyl terminus of Mucin-2 by inverted PCR. A variety of Gremlin-Mucin-2 chimeric cDNA constructs were created by inverted PCR in combination with restricted digestion and ligation of PCR products. The Gremlin-Mucin-2 chimeras generated are as diagrammed in FIG. 7B. These HA-epitope tagged Gremline-Mucin-2 chimera proteins were co-expressed with Myc-BMP in COS-1 cells by transient transfection. The BMP4 binding activities and inhibitory activities were evaluated by immunoprecipitation and BMP4-stimulated C2C12 cell differentiation assay as described in Examples 3 and 4. The results for the Gremlin-Mucin-2 chimeras are seen in FIGS. 8A and 8B.
(In general: A western blot detects proteins with antibodies after separation by electrophoresis.)

As to “PKKFTTMMVTLNCPELQPPTKKKRVTRVKQ (listed as Homo sapiens) [linear peptide]”, the “inhibition of BMP4 activities” value in experiment [1] came to 56±10%.

B1: HA-tagged mouse Gremlin (GRE-HA) (protein, not shown: small tags and cut ends)
chain: KKKGSQGAIPPPDKAQHNDSEQTQSPPQPGSRTRGRGQGRGTAMPGEEVLESSQEALHVTERKYLKRDWCKTQPLKQTIHEEGCNSRTIINRFCYGQCNSFYIPRHIRKEEGSFQSCSFCKPKKFTTMMVTLNCPELQPPTKKKRVTRVKQCRCISIDLD
In experiment [2], B1 came in with an inhibition of BMP4 activity (alkaline phosphatase activity, C2C12 cell differentiation assay); CM of Myc-BMP4 cells mixed with an equal amount of CM of GRE-HA cells of 20%; an inhibition of BMP4 activity (alkaline phosphatase activity, C2C12 cell differentiation assay); CM of cells co-transfected with Myc-BMP4 and GRE-HA of 86%; an inhibition of BMP4 activity (alkaline phosphatase activity, C2C12 cell differentiation assay); CM of co-cultured cells transfected separately with Myc-BMP4 or GRE-HA of 55%.

B2: GRE-HA: HA-epitope tagged mouse Gremlin, full length, expressed by transfection (protein)
chain: B1 chain
modifications: left off: small tags and cut ends
In experiment [3] (CM from COS-1 cells transfected separately with Myc-BMP4 or GRE-HA and co-cultured during CM collection), B2 displayed a BMP4 inhibitory effect of 55±5%. The BMP4 activity inhibited is 20±9% in experiment [3] (CM of Myc-BMP4 transfected cells plus equal amount of CM from GRE-HA transfected cells, mixed and preincubated 1 hour); 86±4% in experiment [3] (cells co-transfected with Myc-BMP4 and GRE-HA, p<0.05). In experiment [4], the “BMP4 binding (co-immunoprecipitation of Myc-BMP4)” value (“BMP4 binding” below) is “Myc-BMP4 precursor was found in the cell lysate; also recorded: retained its BMP4 binding activity”.

B3: GRE-DAN-HA: truncated HA-tagged Gremlin with the NH2-terminal fragment deleted (protein)
chain: CKTQPLKQTIHEEGCNSRTIINRFCYGQCNSFYIPRHIRKEEGSFQSCSFCKPKKFTTMMVTLNCPELQPPTKKKRVTRVKQCRCISIDLD
modifications: left off: small tags and cut ends
notes: truncated HA-tagged Gremlin with the NH2-terminal fragment deleted
With B3, the “BMP4 binding” value in experiment [4] was “retained its BMP4 binding activity”.

B4: GRE-NF-HA: truncated HA-tagged Gremlin with the carboxyl-terminal DAN domain deleted (protein)
chain: KKKGSQGAIPPPDKAQHNDSEQTQSPPQPGSRTRGRGQGRGTAMPGEEVLESSQEALHVTERKYLKRDW
modifications: left off: small tags and cut ends
notes: truncated HA-tagged Gremlin with the carboxyl-terminal DAN domain deleted
As for B4, in experiment [4], the “BMP4 binding” value is reported as “completely abolished”.
